Results: patent US20140120095A1 (Boehringer Ingelheim, published 2014)
Where two headings read alike, the source gives them in different places.

Experiments:
[1] = biological target: T1, cynomolgus DLL4 overexpressed on cells (cynomolgus, UniProt Q9NR61 27-685 (human entry)); assay: FACS titration on HEK293-cDLL4 cells, MCF
T1 construct: also called cyno DII4; cDLL4
T1 chain: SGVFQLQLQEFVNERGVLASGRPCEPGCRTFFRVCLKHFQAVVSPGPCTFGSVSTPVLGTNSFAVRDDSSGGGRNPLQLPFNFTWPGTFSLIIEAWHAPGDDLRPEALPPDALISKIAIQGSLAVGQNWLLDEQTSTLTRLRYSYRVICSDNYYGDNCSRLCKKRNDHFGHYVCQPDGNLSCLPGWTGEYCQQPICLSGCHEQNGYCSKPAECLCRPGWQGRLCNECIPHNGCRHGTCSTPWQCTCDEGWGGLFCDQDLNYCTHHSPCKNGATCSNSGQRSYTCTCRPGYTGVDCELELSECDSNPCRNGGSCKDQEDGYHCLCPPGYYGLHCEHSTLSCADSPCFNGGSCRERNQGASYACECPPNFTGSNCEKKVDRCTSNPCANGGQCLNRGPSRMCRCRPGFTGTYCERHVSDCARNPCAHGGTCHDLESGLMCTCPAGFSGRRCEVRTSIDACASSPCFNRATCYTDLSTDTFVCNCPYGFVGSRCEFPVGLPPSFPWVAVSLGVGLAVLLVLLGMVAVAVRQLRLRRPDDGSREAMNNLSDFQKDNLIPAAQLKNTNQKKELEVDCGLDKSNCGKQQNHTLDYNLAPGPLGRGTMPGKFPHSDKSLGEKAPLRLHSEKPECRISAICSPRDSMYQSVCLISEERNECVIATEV
In short: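 HEK293 cells overexpressing DLL4 (transient or stable) were incubated with VHH titrations for 30 min on ice. After washing, binding was detected with anti-c-myc-Alexa647 by flow cytometry, and the mean MCF was used to calculate EC50.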

[2] = biological target: human DLL4 overexpressed on cells (human, UniProt Q9NR61 27-685); assay: cell-based or functional assay
recombinant human DLL4 = recombinant human DLL4 (human, UniProt Q9NR61 25-522); assay: cell-based or functional assay
human DLL1 (Alexis) [3] = biological target: T2, human DLL1 (Alexis) (human, UniProt O00548 18-545, limits assumed); assay: binding ELISA on coated human DLL1 (Example 5.8, Example 7), OD 450 nm
T2 construct: also called hDLL1
T2 sequence (looked up): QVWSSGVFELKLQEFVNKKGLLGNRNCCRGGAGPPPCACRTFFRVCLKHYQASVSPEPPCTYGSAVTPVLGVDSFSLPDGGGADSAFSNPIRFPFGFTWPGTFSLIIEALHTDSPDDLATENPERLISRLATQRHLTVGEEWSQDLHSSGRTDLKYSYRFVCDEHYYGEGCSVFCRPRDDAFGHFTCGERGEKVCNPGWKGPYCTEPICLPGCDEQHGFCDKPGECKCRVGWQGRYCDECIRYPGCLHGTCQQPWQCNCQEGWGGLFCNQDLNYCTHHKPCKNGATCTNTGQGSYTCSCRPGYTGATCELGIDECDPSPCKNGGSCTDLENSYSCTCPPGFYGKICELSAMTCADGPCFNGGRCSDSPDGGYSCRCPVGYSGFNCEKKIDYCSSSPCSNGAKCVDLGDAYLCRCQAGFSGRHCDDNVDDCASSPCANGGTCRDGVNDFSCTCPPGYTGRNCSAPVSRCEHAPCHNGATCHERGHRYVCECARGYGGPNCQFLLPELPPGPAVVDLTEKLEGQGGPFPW

[4] = biological target: T3, recombinant mouse DLL4 (C-terminally His-tagged extracellular domain, R&D Systems) (mouse, UniProt Q9JI71 27-532); assay: binding ELISA on coated recombinant mouse DLL4 (Example 5.8, Example 7), OD 450 nm
T3 construct: extracellular domain; also called rmDLL4; mDLL4

human Jagged-1 (Alexis) = biological target: T4, human Jagged-1 (Alexis) (human, UniProt P78504 34-1067, limits assumed); assay: binding ELISA on coated human Jagged-1 (Example 5.8, Example 7), OD 405 nm
T4 construct: also called hJag-1; hJAG1

[5] = biological target: T5, recombinant human DLL4 (C-terminally His-tagged extracellular domain, R&D Systems) (human, UniProt Q9NR61 25-522, biotinylated in the competition ELISA); assay: ProteOn off-rate screen, periplasmic extract, coated human DLL4
T5 construct: also called rhDLL4; hDLL4
Description: In a first cycle, amino acid substitutions are introduced randomly in both framework (FW) and complementary determining regions (CDR) using the error-prone PCR method. […] After a polish step, PCR products are inserted via unique restriction sites into a vector designed to facilitate phage display of the VHH library. Consecutive rounds of in-solution selections are performed using decreasing concentrations of biotinylated recombinant human DLL4 (biot-rhDLL4) and trypsin elutions. Affinity-driven selections in a third round using cold rhDLL4 (at least 100× excess over biot-rhDLL4) are also performed. No selections on murine DLL4 are included as (conservation of) cross-reactivity is assessed at the screening level. Individual mutants are produced as recombinant protein using an expression vector derived from pUC119, which contains the LacZ promoter, a resistance gene for ampicillin, a multiple cloning site and an ompA leader sequence (pAX50). E. coliTG1 cells are transformed with the expression vector library and plated on agar plates (LB+Amp+2% glucose). Single colonies are picked from the agar plates and grown in 1 mL 96-deep-well plates. VHH expression is induced by adding IPTG (1 mM). Periplasmic extracts (in a volume of ˜80 uL) are prepared according to standard methods and screened for binding to recombinant human and mouse DII4 in a ProteOn (BioRad, Hercules, Calif., USA) off-rate assay. In brief, a GLC ProteOn Sensor chip is coated with recombinant human DII4 on the “ligand channels” L2 and L4 (with L1/L3 as reference channel), while “ligand channels” […] is coated with mouse DII4. Periplasmic extract of affinity-matured clones is diluted 1/10 and injected across the “analyte channels” A1-A6. An average off-rate is calculated of the wild type clones present in the plate and served as a reference to calculate off-rate improvements.

human DLL1 (Alexis) [6] = biological target: T2, human DLL1 (Alexis); assay: binding ELISA on coated human DLL1 (Example 5.8, Example 7), OD 450 nm; remark: listed apart in the source

T3 sequence (Q9JI71 27-532): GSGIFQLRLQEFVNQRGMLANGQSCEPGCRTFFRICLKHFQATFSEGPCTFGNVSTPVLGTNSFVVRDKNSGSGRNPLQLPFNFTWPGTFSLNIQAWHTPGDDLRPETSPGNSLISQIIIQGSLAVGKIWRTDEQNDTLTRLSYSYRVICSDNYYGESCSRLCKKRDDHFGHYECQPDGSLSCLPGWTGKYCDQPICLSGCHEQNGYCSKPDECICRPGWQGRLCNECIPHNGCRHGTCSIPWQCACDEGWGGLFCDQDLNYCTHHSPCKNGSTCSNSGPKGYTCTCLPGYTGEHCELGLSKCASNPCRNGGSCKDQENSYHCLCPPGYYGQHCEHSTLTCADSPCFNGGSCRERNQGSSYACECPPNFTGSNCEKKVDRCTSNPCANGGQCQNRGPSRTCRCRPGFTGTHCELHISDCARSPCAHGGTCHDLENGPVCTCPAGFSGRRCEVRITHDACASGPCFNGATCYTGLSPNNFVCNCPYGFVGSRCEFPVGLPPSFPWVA

Binder	binding result (human DLL1 (Alexis) [3])	EC50 (read off the curve) [4] [nM]	binding result (human Jagged-1 (Alexis))	fold (off-rate vs DLLBII101G08) [5] [fold]	koff [5] [s⁻¹]	binding result (human DLL1 (Alexis) [6])	further results
DLLBII115A05 (VHH, also called 115A5; DLLBII115A5) VHH: EVQLVESGGGLVQPGGSLRLSCAASGFTFGSYDMSWVRRSPGKGPEWVSSINSGGGSTYYADFVKGRFTISRDNAKNTLYLQMNSLKPEDTAVYYCAADRYIRARQGDYWGAYEYDYWGQGTQVTVSS	–	–	–	–	–	–	EC50 (read off the curve) [1]: ~4 nM; IC50, DLL4/Notch1 reporter assay [2]: 1740 nM; IC50 (nM) (experiment 1), DLL4 proliferation assay (HUVEC) (recombinant human DLL4): 10000 nM
DLLBII015 (VHH, not shown: small tags and cut ends) VHH: EVQLVESGGGLVQPGGSLRLSCAASGFTIGSYDMSWVRRSPGKGPEWVSAINSGGGSTYYADYVKGRFTISRDNAKNTLYLQMNSLKPEDTAVYYCAADRYIWARQGEYWGAYAYDYWGQGTQVTVSS	no binding (tested: log[M] -6.1 (about 8e-7 M))	~1	–	–	–	–	–
DLLBII133A09 (VHH, not shown: small tags and cut ends) VHH: EVQLVESGGGLVQPGGSLRLSCAASGFTFGSYDMSWVRRSPGKGPEWVSAINSGGGSTYYADYVKGRFTISRDNAKNTLYLQMNSLKPEDTAVYYCAADRYIWARQGEYWGAYAYDYWGQGTQVTVSS	no binding (tested: log[M] -6.1 (about 8e-7 M))	~1	–	–	–	–	–
DLLBII136C07 (VHH, not shown: small tags and cut ends) VHH: EVQLVESGGGLVQPGGSLRLSCAASGFTFGSYDMSWVRRSPGKGPEWVSSINSGGGSTYYADYVKGRFTISRDNAKNTLYLQMNSLKPEDTAVYYCAADRYIWARQGEYWGAYEYDYWGQGTQVTVSS	no binding (tested: log[M] -6.1 (about 8e-7 M))	~1	–	–	–	–	–
DLLBII133G05 (VHH, not shown: small tags and cut ends) VHH: EVQLVESGGGLVQPGGSLRLSCAASGFTFGSYDMSWVRRSPGKGPEWVSAINSGGGSTYYTDYVKGRFTISRDNAKNTLYLQMNSLKPEDTAVYYCAADRYIWARQGEYWGAYAYDYWGQGTQVTVSS	no binding (tested: log[M] -6.1 (about 8e-7 M))	~0.4	–	–	–	–	–
DLLBII101G08 (VHH, also called 101G8; DLLBII101G8) VHH: EVQLVESGGGLVQAGGSLRLSCAASGRTFSSYAMAWFRQAPGKEREFVAAIRWSGGTAYYADSVQGRFTISRDNAKNTVYLQMNSLKPEDTAVYYCANRAADTRLGPYEYDYWGQGTQVTVSS	–	–	–	–	–	–	EC50 (read off the curve) [1]: ~9 nM; IC50, DLL4/Notch1 reporter assay [2]: 2760 nM; IC50 (nM) (experiment 1), DLL4 proliferation assay (HUVEC) (recombinant human DLL4): 401 nM; IC50 (nM) (experiment 2), DLL4 proliferation assay (HUVEC) (recombinant human DLL4): 112 nM
DLLBII101G08 (VHH, not shown: small tags and cut ends, parent VHH; also called 101G08 (wt); 101G8) VHH: EVQLVESGGGLVQAGGSLRLSCAASGRTFSSYAMAWFRQAPGKEREFVAAIRWSGGTAYYADSVQGRFTISRDNAKNTVYLQMNSLKPEDTAVYYCANRAADTRLGPYEYDYWGQGTQVTVSS	–	–	no binding (tested: log[M] -6.1 (about 8e-7 M))	1	0.0022	no binding (tested: log[M] -6.1 (about 8e-7 M))	–
DLLBII129D08 (VHH, not shown: small tags and cut ends) VHH: EVQLVESGGGLVQAGGSLRLSCAASGRTFSSYAMAWYRQAPGKEREYVAAIRWSGGTAYYADSVQGRFTISRDNAKNTVYLQMNSLKPEDTAVYYCANRAPDTRLEPYLYDYWGQGTQVTVSS	–	–	no binding (tested: log[M] -6.1 (about 8e-7 M))	38	5.9e-05	no binding (tested: log[M] -6.1 (about 8e-7 M))	–
DLLBII129B05 (VHH, not shown: small tags and cut ends) VHH: EVQLVESGGGLVQAGGSLRLSCAASGRTFSSYAMAWYRQAPGKEREYVAAIRWSGGTAYYADSVQGRFTISRDNAKNTVYLQMNSLKPEDTAVYYCANRAPDTRLAPYEYDHWGQGTQVTVSS	–	–	no binding (tested: log[M] -6.1 (about 8e-7 M))	24	9.3e-05	no binding (tested: log[M] -6.1 (about 8e-7 M))	–
DLLBII129E11 (VHH, not shown: small tags and cut ends) VHH: EVQLVESGGGLVQAGGSLRLSCAASGRTFSSYAMAWYRQAPGKEREYVAAIRWSGGTAYYADSVQGRFTISRDNAKNTVYLQMNSLKPEDTAVYYCANRAPDTRLRPYLYDYWGQGTQVTVSS	–	–	no binding (tested: log[M] -6.1 (about 8e-7 M))	28	8e-05	no binding (tested: log[M] -6.1 (about 8e-7 M))	–
DLLBII56A09 (VHH, also called 56A9; DLLBII56A9) VHH: EVQLVESGGGLVQPGGSLRLSCAASGFTFDDYAIGWFRQAPGKEPEGISCISSSGGITYYADSVKGRFTTSRDNAKNTVYLQMNSLKPEDTAVYYCATPGIAACRGIHYTGQGTQVTVSS	–	–	–	–	–	–	EC50 (read off the curve) [1]: ~3 nM; IC50, DLL4/Notch1 reporter assay [2]: 540 nM; IC50 (nM) (experiment 1), DLL4 proliferation assay (HUVEC) (recombinant human DLL4): 11 nM; IC50 (nM) (experiment 2), DLL4 proliferation assay (HUVEC) (recombinant human DLL4): 6.8 nM
